Reference: patent US20060253917A1 (published 2006)

B8: OsSGT1 aa 200-368 (other)
chain: QMLSVSIEVPGEEPYHFQPRLFSKIIPEKSRYQVLSTKVEIRLAKAEQITWTSLDYDKKPKAVPQKIIPPAESAQRPSYPSSKSKKDWDKLEAEVKKEEKEEKLEGDAALNKFFRDIYSDADEDMRRAMMKSFVESNGTVLSTNWKDVGSKKVEGSPPDGMELKKWEY
notes: bait, Gal4 DBD fusion; also called PN20285

What was measured:
OsCS aa 316-583 = target: T1, OsCS aa 316-583 (Oryza sativa, UniProt A2Y0X2 316-583); experiment: Y2H; input trait library
T1 construct: bait, Gal4 DBD fusion; also called PN19707
T1 sequence: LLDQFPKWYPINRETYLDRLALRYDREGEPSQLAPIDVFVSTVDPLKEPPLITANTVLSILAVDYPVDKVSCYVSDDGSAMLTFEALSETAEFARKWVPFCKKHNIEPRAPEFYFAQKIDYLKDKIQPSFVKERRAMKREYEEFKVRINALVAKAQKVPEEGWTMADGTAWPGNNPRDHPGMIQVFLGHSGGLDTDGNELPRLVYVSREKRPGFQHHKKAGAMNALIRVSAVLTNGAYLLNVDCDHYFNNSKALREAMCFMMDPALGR
Procedure, shortened: (§1)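 A rice prey library, either the input trait or the output trait library, was screened with a bait clone encoding a defined amino-acid fragment of a rice protein. Screening used an automated, high-throughput yeast two-hybrid assay provided by Myriad Genetics Inc. (Salt Lake City, Utah). Retrieved prey clones had their encoding sequences compared by BLAST against databases so the interacting proteins could be identified.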

Os008938-3209 aa 53-259 = target: T2, Os008938-3209 aa 53-259 (Oryza sativa, UniProt Q06967 53-259); experiment: Y2H; input trait library
T2 construct: prey, AD fusion; also called PN20215; O. sativa Putative 14-3-3 Protein
T2 sequence: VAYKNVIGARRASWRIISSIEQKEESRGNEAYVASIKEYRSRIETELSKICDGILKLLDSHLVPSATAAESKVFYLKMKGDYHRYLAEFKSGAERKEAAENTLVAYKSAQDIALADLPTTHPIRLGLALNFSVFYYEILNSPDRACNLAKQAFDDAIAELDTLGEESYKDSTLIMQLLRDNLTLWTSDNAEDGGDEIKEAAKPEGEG
Procedure, shortened: as §1

OsPN22154 aa 390-562 = target: T3, OsPN22154 aa 390-562 (Oryza sativa, UniProt Q6Z6L4 390-562); experiment: Y2H; input trait library
T3 construct: prey, AD fusion; also called Novel Protein PN22154, Similar to A. thaliana Glutamyl Aminopeptidase
T3 sequence: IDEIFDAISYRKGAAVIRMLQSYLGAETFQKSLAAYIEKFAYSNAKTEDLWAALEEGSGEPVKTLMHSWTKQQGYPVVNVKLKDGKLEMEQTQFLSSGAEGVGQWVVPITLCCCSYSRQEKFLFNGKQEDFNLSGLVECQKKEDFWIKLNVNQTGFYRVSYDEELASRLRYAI
Procedure, shortened: as §1

OsCS aa 411-489 = target: T4, OsCS aa 411-489 (Oryza sativa, UniProt A2Y0X2 411-489); experiment: Y2H; input trait library
T4 construct: prey, AD fusion; also called PN19707; O. sativa Cellulose Synthase Catalytic Subunit, RSW1-Like
T4 sequence: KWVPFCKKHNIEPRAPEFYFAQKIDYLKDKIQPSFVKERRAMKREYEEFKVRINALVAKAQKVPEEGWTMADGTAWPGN
Procedure, shortened: as §1

OsCATA aa 332-433 = target: T5, OsCATA aa 332-433 (Oryza sativa, UniProt P0C549 332-433); experiment: Y2H; input trait library
T5 construct: prey, AD fusion; also called PN20899; O. sativa Catalase A Isozyme
T5 sequence: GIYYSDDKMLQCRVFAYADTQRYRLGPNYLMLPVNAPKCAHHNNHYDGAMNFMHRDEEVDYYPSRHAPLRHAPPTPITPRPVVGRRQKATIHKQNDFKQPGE
Procedure, shortened: as §1

[1] = target: T6, OsERP (PN20696) aa 23-120 (Oryza sativa, UniProt Q0JBH9 23-120); experiment: Y2H; output trait library
T6 construct: bait, Gal4 DBD fusion; also called Elicitor responsive protein
T6 sequence: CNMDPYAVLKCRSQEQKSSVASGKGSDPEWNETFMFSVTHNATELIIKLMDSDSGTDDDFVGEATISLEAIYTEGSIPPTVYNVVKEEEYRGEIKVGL
Procedure, shortened: (§2)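 The values record whether an interaction was detected. In an automated, high-throughput yeast two-hybrid screen from Myriad Genetics Inc., rice protein fragments defined by amino-acid range were used as bait against rice prey clone libraries. Full-length genes were identified by BLAST comparison of the sequences encoding the interacting prey fragments against databases.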

OsS49462 aa 1-100 = target: T7, OsS49462 aa 1-100 (Oryza sativa, UniProt Q01J96 179-278); experiment: Y2H; input trait library
T7 construct: bait, Gal4 DBD fusion; also called PN20325; O. sativa Cyclin OsS49462, Fragment
T7 sequence: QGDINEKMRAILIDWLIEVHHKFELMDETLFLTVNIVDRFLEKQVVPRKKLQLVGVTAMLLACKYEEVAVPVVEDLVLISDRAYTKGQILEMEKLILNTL
Procedure, shortened: as §1

OsSGT1 aa 200-368 = target: B8; experiment: Y2H; input trait library
Procedure, shortened: as §1

Os003118-3674 aa 75-149 = target: T8, Os003118-3674 aa 75-149 (Oryza sativa, UniProt Q84VG0 75-148); experiment: Y2H; output trait library
T8 construct: bait, Gal4 DBD fusion; also called PN20551
T8 sequence: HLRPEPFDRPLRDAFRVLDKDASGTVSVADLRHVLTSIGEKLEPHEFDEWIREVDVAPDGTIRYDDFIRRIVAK
Procedure, shortened: as §1

PN24061 aa 34-236 = target: T9, PN24061 aa 34-236 (Oryza sativa, UniProt A2XLV9 34-236); experiment: Y2H; output trait library
T9 construct: prey, AD fusion; also called Auxin induced protein-like
T9 sequence: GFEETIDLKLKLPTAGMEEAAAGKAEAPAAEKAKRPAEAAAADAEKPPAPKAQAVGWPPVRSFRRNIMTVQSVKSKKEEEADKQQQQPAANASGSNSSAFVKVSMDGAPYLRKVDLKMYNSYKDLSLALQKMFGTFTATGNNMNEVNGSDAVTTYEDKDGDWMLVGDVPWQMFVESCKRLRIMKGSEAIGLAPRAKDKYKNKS
Procedure, shortened: as §2

OsSSS aa 97-263 = target: T10, OsSSS aa 97-263 (Oryza sativa, UniProt A2Y9M4 97-263); experiment: Y2H; output trait library
T10 construct: prey, AD fusion; also called PN19701
T10 sequence: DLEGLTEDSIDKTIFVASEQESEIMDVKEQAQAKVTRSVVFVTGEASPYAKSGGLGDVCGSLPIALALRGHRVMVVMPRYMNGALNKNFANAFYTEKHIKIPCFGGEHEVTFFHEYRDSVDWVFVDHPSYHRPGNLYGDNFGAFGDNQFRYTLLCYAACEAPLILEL
Procedure, shortened: as §1

OsSSS aa 68-270 = target: T11, OsSSS aa 68-270 (Oryza sativa, UniProt A2Y9M4 68-270); experiment: Y2H; input trait library
T11 construct: prey, AD fusion; also called PN19701; Soluble Starch Synthase
T11 sequence: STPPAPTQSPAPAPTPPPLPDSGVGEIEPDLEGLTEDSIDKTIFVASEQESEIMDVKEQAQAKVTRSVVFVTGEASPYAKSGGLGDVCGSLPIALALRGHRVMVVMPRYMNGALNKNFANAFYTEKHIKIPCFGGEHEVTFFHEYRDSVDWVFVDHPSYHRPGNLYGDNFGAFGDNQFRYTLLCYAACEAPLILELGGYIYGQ
Procedure, shortened: as §1

OsRACD aa 1-198 = target: T12, OsRACD aa 1-198 (Oryza sativa, UniProt Q6EP31 1-197); experiment: Y2H; input trait library
T12 construct: bait, Gal4 DBD fusion; also called PN19695
Procedure, shortened: as §1

PN20674 aa 71-298 = target: T13, PN20674 aa 71-298 (Oryza sativa, UniProt Q6AVA8 71-298); experiment: Y2H; input trait library
T13 construct: prey, AD fusion; also called Pyruvate orthophosphate dikinase-like
T13 sequence: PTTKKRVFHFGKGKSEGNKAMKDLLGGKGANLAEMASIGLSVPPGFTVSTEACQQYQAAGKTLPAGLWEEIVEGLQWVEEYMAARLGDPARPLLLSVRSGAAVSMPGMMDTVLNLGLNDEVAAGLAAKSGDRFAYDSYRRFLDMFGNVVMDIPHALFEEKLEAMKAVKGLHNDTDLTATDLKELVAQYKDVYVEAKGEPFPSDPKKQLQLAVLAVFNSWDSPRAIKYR
Procedure, shortened: as §1

PN20674 aa 64-263 = target: T14, PN20674 aa 64-263 (Oryza sativa, UniProt Q6AVA8 64-263); experiment: Y2H; input trait library
T14 construct: prey, AD fusion; also called Pyruvate orthophosphate dikinase-like
T14 sequence: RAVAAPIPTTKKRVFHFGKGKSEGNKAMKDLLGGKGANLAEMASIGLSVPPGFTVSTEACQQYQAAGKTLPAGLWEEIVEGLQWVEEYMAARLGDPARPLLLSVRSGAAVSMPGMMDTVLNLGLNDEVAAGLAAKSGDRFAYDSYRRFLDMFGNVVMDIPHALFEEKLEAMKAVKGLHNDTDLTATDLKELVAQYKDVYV
Procedure, shortened: as §1

T12 sequence (Q6EP31 whole entry, the tested form may be a part): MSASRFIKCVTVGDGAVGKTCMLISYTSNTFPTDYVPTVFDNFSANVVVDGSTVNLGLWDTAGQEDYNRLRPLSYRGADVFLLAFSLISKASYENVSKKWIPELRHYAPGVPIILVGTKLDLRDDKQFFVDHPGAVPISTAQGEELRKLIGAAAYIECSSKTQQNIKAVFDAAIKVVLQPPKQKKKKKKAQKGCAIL

B1: OsCS aa 316-582 (other)
chain: LLDQFPKWYPINRETYLDRLALRYDREGEPSQLAPIDVFVSTVDPLKEPPLITANTVLSILAVDYPVDKVSCYVSDDGSAMLTFEALSETAEFARKWVPFCKKHNIEPRAPEFYFAQKIDYLKDKIQPSFVKERRAMKREYEEFKVRINALVAKAQKVPEEGWTMADGTAWPGNNPRDHPGMIQVFLGHSGGLDTDGNELPRLVYVSREKRPGFQHHKKAGAMNALIRVSAVLTNGAYLLNVDCDHYFNNSKALREAMCFMMDPALG
notes: prey, AD fusion; also called PN19707
OsCS aa 316-583
  binding result: binds

B2: OsCAA90866 aa 100-250 (other)
chain: GEMTERVAQEDRIPVLKASQDHLKEFISICEALELISEDELEISRQKNLIPWQIEEHRRLHGSSAKRLQKQSSRIKERKERRRRHESSCLSAPIELGGDLLRMMEKEREGMVSYYLIGSIEGFDLLDMLKKEEEIVPAVKEGKRRMVMHLL
notes: bait, Gal4 DBD fusion; also called PN20311; O. sativa Chilling-Inducible Protein CAA90866
Os008938-3209 aa 53-259
  binding result: binds

B3: OsCHIB1 aa 10-200 (enzyme)
chain: YIGAQFTGVRFSDVPVNPGLSFHFILAFAIDYFMATQSSKPAPANGVFAPYWDTANLSPAAVAAAKAAHPNLSVILALGGDTVQNTGVNATFAPTSSVDAWVRNAADSVSGLIDAYGLDGVDVDYEHFAAGVDTFVECIGRLLTELKARHPNIATSIAPFEHPVVQRYYQPLWRRYAGVIDYVNFQFYGYG
notes: bait, Gal4 DBD fusion; also called PN19651; O. sativa Chitinase, Class III
OsPN22154 aa 390-562
  binding result: binds
OsCS aa 411-489
  binding result: binds
OsCATA aa 332-433
  binding result: binds

B4: PN31085 aa 378-553 (other)
chain: NGTISDSLGNLSELSDINLIGNNLTGHVPDSLTSLRLLQKLDLSGNDLTGPLPTFSPSVKVNVTGNLNFNGTAPGSAPSKDTPGSSSSRAPTLPGQGVLPENKKKRSAVVLATTIPVAVSVVALASVCAVLIFRKKRGSVPPNAASVVVHPRENSDPDNLVKIVMVNNDGNSSSTQ
notes: prey, AD fusion; also called Receptor-like protein kinase-like
[1]
  binding result: binds

B5: OsPN30848 aa 365-476 (other)
chain: DCSLAKPPAADKKDDRVPLPSSNGAPLLPSYPPLGYGIMSVPGAYGAAPASTAQPMLYAPRAPPGAAMVPMMLPDGRLVYVVQQPGGQLPLASPPPQQAGHRSGSGGRHGGS
notes: prey, AD fusion
OsS49462 aa 1-100
  binding result: binds

B6: PN20696 (OsERP) aa 54-144 (other)
chain: ETFMFSVTHNATELIIKLMDSDSGTDDDFVGEATISLEAIYTEGSIPPTVYNVVKEEEYRGEIKVGLTFTPEDDRDRGLSEEDIGGWKQSS
notes: prey, AD fusion; also called Elicitor responsive protein
OsSGT1 aa 200-368
  binding result: binds

B7: OsPN23878 aa 824-935 (other)
chain: SLARKHRAAIILQRNLKCWLARRYFVNIRKASVVIQSGIRGCLVRRCAGNVDLLNVLREFESKKEAEGDQILIKASFLAELQRRILKAEATVREKDEENEMLQQRLQQYENR
notes: prey, AD fusion
Os003118-3674 aa 75-149
  binding result: binds

## B8
PN24061 aa 34-236
  binding result: binds

B9: OsCRTC aa 250-425 (other)
chain: PKEIPDPDAKKPEAGADEEDGEWTAPTIRNPEYKGPWKQKKIKNPNYQGKWKPPMIATPDFQDDPYIYAFDSLKSIGIELWQVKSGTLFDNILITDDAALAKTFAEETWAKHKDAEKAAFDEAEKKKEEEEAAKAGEDDDDLDDEDAEDEDKADEKADSDAEDGKDSDDEKHDEL
notes: bait, Gal4 DBD fusion; also called PN20544
OsSSS aa 97-263
  binding result: binds
OsSSS aa 68-270
  binding result: binds

B10: OsPN22824 aa 301-500 (other)
chain: DGEEVSCGIKAALAEKELEEEETKKMIEEESIDATAIDSGEKENPEVAELKAKLMAKDMEVAILTADNAELKKQVGEAAEAAKKAEEEAAAKASLVEQDLKERAAREARMGEQLRASEAARETLEAEMRRLRVQTEQWRKAAEAAPPVIGGDAHFVGHNGNGWGSPATMPDDCDDEGFGGKRKGAGIRMLGDLWKKKGSK
notes: prey, AD fusion
OsRACD aa 1-198
  binding result: binds

B11: OsERP (PN20696) aa 50-145 (other)
chain: PEWNETFMFSVTHNATELIIKLMDSDSGTDDDFVGEATISLEAIYTEGSIPPTVYNVVKEEEYRGEIKVGLTFTPEDDRDRGLSEEDIGGWKQSS
notes: bait, Gal4 DBD fusion; also called Elicitor responsive protein
PN20674 aa 71-298
  binding result: binds
PN20674 aa 64-263
  binding result: binds
